Here are results for 4 molecules from patent publication US20250170175A1 (OSLO UNIVERSITETSSYKEHUS HF, published 2025).

Test [1] concerns the target HLA-A2 presenting TdT peptide-1 (…) on target cells (human). Nature of the test: cell-based or functional assay.
In test [2] the target is T1, human terminal deoxynucleotidyl transferase (TdT) peptide on HLA-A*02:01 (human).
T1 peptide: ALYDKTKRI
Nature of the test: multimer staining.

For test [3], the target named is HLA-A2 presenting TdT peptide-3 (…) on target cells (human). The experiment in a line: cell-based or functional assay.
Test [4] addresses T1, human terminal deoxynucleotidyl …. The experiment in a line: cytokine release.
Test [5] has as its target T2, human terminal deoxynucleotidyl transferase (TdT) peptide on HLA-A*02:01 (human).
T2 peptide: ALYDKTKRIFL
Nature of the test: multimer staining.

B1: T1 TCR (TCR, V domains shown)
V domain 1: EDQVTQSPEALRLQEGESSSLNCSYTVSGLRGLFWYRQDPGKGPEFLFTLYSAGEEKEKERLKATLTKKESFLHITAPKPEDSATYLCAVQASSNSGYALNFGKGTSLLVTP
V domain 2: SAVISQKPSRDICQRGTSLTIQCQVDSQVTMMFWYRQQPGQSLTLIATANQGSEATYESGFVIDKFPISRPNLTFSTLTVSNMSPEDSSIYLCSVEPGYADTQYFGPGTRLTVLE
Regarding B1, the “EC50 of activation of T1 cells following co-incubation with peptide-pulsed T2 lymphoblast cells” value in test [1] stood at 5.8 nM.

B2: T1 TCR (TCR, V domains shown)
Valpha: B1 V domain 1
Vbeta: SAVISQKPSRDICQRGTSLTIQCQVDSQVTMMFWYRQQPGQSLTLIATANQGSEATYESGFVIDKFPISRPNLTFSTLTVSNMSPEDSSIYLCSVEPGYADTQYFGPGTRLTVL
On to B2, for which, in test [2], the binding result is on record as “recognises”.

B3: T3 TCR (TCR, V domains shown)
V domain 1: SQQGEEDPQALSIQEGENATMNCSYKTSINNLQWYRQNSGRGLVHLILIRSNEREKHSGRLRVTLDTSKKSSSLLITASRAADTASYFCATDAGAYSGGGADGLTFGKGTHLIIQP
V domain 2: EAQVTQNPRYLITVTGKKLTVTCSQNMNHEYMSWYRQDPGLGLRQIYYSMNVEVTDKGDVPEGYKVSRKEKRNFPLILESPSPNQTSLYFCASSLSSSYNEQFFGPGTRLTVLE
Regarding B3, the “EC50 of activation of T3 cells following co-incubation with peptide-pulsed T2 lymphoblast cells” value in test [3] was found to be 1.2 nM.

B4: T3 TCR (TCR, V domains shown)
Valpha: B3 V domain 1
Vbeta: EAQVTQNPRYLITVTGKKLTVTCSQNMNHEYMSWYRQDPGLGLRQIYYSMNVEVTDKGDVPEGYKVSRKEKRNFPLILESPSPNQTSLYFCASSLSSSYNEQFFGPGTRLTVL
In the case of B4, the binding result in test [4] was “no recognition”; in test [5], “recognises”.
